Measured values from PMC8924211 (Nature Communications, 2022).
Positions count from the first letter of the chain named.

Legend:
Experiment in all cases: AlphaScreen or HTRF; saturation binding: HEK293 cells transfected with SNAP-tagged receptor (WT or mutant) and labelled with SNAP-Lumi4-Tb, incubated with increasing concentrations of galanin-A2 in the presence or absence of 100 uM unlabeled galanin, 1 h at room temperature; HTRF ratio 665 nm/620 nm
Conditions in all cases: one partner purified
SNAP-GAL2R A170^ECL2S = target: T1, SNAP-GAL2R A170^ECL2S (human, UniProt O43603 1-387, A170^ECL2S, Lumi4-Tb on the SNAP tag)
T1 construct: also called A170S; source: HEK293, transfected, on cells; not shown: SNAP tag, N-terminal, kept
T1 sequence (looked up): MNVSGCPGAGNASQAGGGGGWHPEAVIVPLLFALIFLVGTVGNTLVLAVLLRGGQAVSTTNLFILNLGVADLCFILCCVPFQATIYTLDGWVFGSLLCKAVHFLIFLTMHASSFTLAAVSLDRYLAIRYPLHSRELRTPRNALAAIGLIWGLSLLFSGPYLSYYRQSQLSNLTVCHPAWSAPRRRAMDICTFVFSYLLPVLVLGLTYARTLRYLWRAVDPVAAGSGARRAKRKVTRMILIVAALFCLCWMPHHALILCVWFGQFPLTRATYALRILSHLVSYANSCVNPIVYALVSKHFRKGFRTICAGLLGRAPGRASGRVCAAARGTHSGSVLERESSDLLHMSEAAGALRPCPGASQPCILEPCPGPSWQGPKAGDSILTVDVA

SNAP-GAL2R L172^ECL2A = target: T2, SNAP-GAL2R L172^ECL2A (human, UniProt O43603 1-387, L172^ECL2A, Lumi4-Tb on the SNAP tag)
T2 construct: also called L172A; source: HEK293, transfected, on cells; not shown: SNAP tag, N-terminal, kept
T2 sequence (looked up): T1 sequence (looked up) with S170A, L172A

SNAP-GAL2R I256^6.55A = target: T3, SNAP-GAL2R I256^6.55A (human, UniProt O43603 1-387, I256^6.55A, Lumi4-Tb on the SNAP tag)
T3 construct: also called I256A; source: HEK293, transfected, on cells; not shown: SNAP tag, N-terminal, kept
T3 sequence (looked up): T1 sequence (looked up) with S170A, I256A

SNAP-GAL2R W249^6.48A = target: T4, SNAP-GAL2R W249^6.48A (human, UniProt O43603 1-387, W249^6.48A, Lumi4-Tb on the SNAP tag)
T4 construct: also called W249A; source: HEK293, transfected, on cells; not shown: SNAP tag, N-terminal, kept
T4 sequence (looked up): T1 sequence (looked up) with S170A, W249A

B1: galanin-A2 (full-length galanin labeled with the dye A2 on an additional cysteine at the C-terminal end) (peptide)
peptide: GWTLNSAGYLLGPHAVGNHRSFSDKNGLTSC
modifications: dye A2 on the additional C-terminal cysteine
notes: numbers count on: the mature protein; additional cysteine at the C-terminal end of the peptide, carries the dye A2; source: synthetic peptide (synthesized by Vazyme, China)
SNAP-GAL2R A170^ECL2S
  Kd: 33.5 nM
SNAP-GAL2R L172^ECL2A
  Kd: 51.6 nM
SNAP-GAL2R I256^6.55A
  Kd: 221 nM
SNAP-GAL2R W249^6.48A
  Kd: 23.3 nM
